Measurements published in patent US20030216321A1 (REGENTS OF THE UNIVERSITY OF MICHIGAN, published 2003).
Ends that are not written are not given here.

Legend:
PAI-1:uPA complex = target: T1, PAI-1:uPA complex (human, UniProt P00749 21-431); assay: solid phase assay on nVn-coated plates, anti-PAI-1 detection (FIG. 27)
T1 construct: also called uPA-PAI-1 complex; UPA-PAI-1

PAI-1:tPA complex = target: T2, PAI-1:tPA complex (human, UniProt P00750 36-562); assay: as above
T2 construct: also called tPA-PAI-1 complex

[1] = target: T3, non-covalent PAI-1-anhydrotrypsin complex (human; bovine, UniProt P00760 24-246, anhydrotrypsin (chemically modified active site; the residue is not given)); assay: solid phase assay on nVn-coated plates with 1 µM anhydrotrypsin in all wells (FIG. 28)
T3 construct: Formed in the well: 1 µM anhydrotrypsin present during the PAI-1 incubation step; also called PAI-1 in association with anhydrotrypsin
Procedure: Briefly, Vn at 1 µg/ml in phosphate buffered saline (PBS), was coated overnight onto Immulon 2 (Dynatech) rmicrotiter plates in a volume of 100 μl at 4° C., and all subsequent steps were performed at room temperature. The plates were washed with PBS followed by dH₂O, allowed to air dry for 15 min., and then blocked with 200 μl of 3% bovine serum albumin in PBS for 30 minutes.

[2] = target: T4, recombinant active wild-type PAI-1 (plasminogen activator inhibitor type 1) (human, UniProt P05121 24-402); assay: competitive inhibition of active PAI-1 binding to immobilized nVn by solution-phase Vn, ELISA
T4 construct: Serpin; Bacterially expressed human PAI-1 (Molecular Innovations), active conformation (>95%); also called wtPAI-1; active PAI-1
Procedure: IC₅₀ values for the inhibition by solution-phase Vn were calculated using a four parameter logistic fit from the GraFit program (Erithacus Software). […] The latter was calculated based on the fit of binding data in the absence of competitor Vn (FIG. 37) by equation 1.

[3] = target: T4, recombinant active wild-type PAI-1 …; assay: 6.4 µM active PAI-1 with 200 µM peptide; thermodenaturation, mass spectra, SDS-PAGE
Source text: The free peptide was then removed by chromatography on Heparin Sepharose.

B1: native human vitronectin (ligand, UniProt P04004 20-478, looked up)
chain: DQESCKGRCTEGFNVDKKCQCDELCSYYQSCCTDYTAECKPQVTRGDVFTMPEDEYTVYDDGEEKNNATVHEQVGGPSLTSDLQAQSKGNPEQTPVLKPEEEAPAPEVGASKPEGIDSRPETLHPGRPQPPAEEELCSGKPFDAFTDLKNGSLFAFRGQYCYELDEKAVRPGYPKLIRDVWGIEGPIDAAFTRINCQGKTYLFKGSQYWRFEDGVLDPDYPRNISDGFDGIPDNVDAALALPAHSYSGRERVYFFKGKQYWEYQFQHQPSQEECEGSSLSAVFEHFAMMQRDSWEDIFELLFWGRTSAGTRQPQFISRDWHGVPGQVDAAMAGRIYISGMAPRPSLAKKQRFRHRNRKGYRSQRGHSRGRNQNSRRPSRATWLSLFSSEESNLGANNYDDYRMDWLVPATCEPIQSVFFFSGDKYYRVNLRTRRVDTVDPPYPRSIAQYWLGCPAPGHL
notes: Predominantly monomeric; also called nVn; native Vn
- Kd (PAI-1:uPA complex): > 100 nM
- Kd (PAI-1:tPA complex): > 100 nM
- binding result [1]: binds

B2: urea denatured human vitronectin (conformationally altered) (ligand, UniProt P04004 20-478, looked up)
chain: B1 chain
notes: also called dVn; uVn
- fold difference of IC50 against solution-phase nVn [2]: ~6 fold

B3: synthetic RCL peptide Ac-Thr-Val-Ala-Ser-Ser-Ser-Thr-Ala (PAI-1 P14 to P7) (peptide)
peptide: Ac-TVASSSTA
notes: also called eight residue synthetic peptide
- binding result [3]: binds
